Measurements published in IntAct's records for PubMed 21358628.

B1: DNA-directed RNA polymerase III subunit RPC3 (Homo sapiens), Q9BUI4 (parent)
chain: MTQAEIKLCSLLLQEHFGEIVEKIGVHLIRTGSQPLRVIAHDTGTSLDQVKKALCVLVQHNLVSYQVHKRGVVEYEAQCSRVLRMLRYPRYIYTTKTLYSDTGELIVEELLLNGKLTMSAVVKKVADRLTETMEDGKTMDYAEVSNTFVRLADTHFVQRCPSVPTTENSDPGPPPPAPTLVINEKDMYLVPKLSLIGKGKRRRSSDEDAAGEPKAKRPKYTTDNKEPIPDDGIYWQANLDRFHQHFRDQAIVSAVANRMDQTSSEIVRTMLRMSEITTSSSAPFTQPLSSNEIFRSLPVGYNISKQVLDQYLTLLADDPLEFVGKSGDSGGGMYVINLHKALASLATATLESVVQERFGSRCARIFRLVLQKKHIEQKQVEDFAMIPAKEAKDMLYKMLSENFMSLQEIPKTPDHAPSRTFYLYTVNILSAARMLLHRCYKSIANLIERRQFETKENKRLLEKSQRVEAIIASMQATGAEEAQLQEIEEMITAPERQQLETLKRNVNKLDASEIQVDETIFLLESYIECTMKRQ
B2: DNA-directed RNA polymerase III subunit RPC3 (Homo sapiens), Q9BUI4 (parent)
chain: B1 chain
partner: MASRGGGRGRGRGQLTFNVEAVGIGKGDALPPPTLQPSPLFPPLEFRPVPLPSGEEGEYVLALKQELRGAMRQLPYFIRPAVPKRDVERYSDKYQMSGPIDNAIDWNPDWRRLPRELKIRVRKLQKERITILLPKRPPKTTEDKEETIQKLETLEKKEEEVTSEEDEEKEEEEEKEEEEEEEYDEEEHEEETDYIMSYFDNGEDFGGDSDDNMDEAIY

Variants of: B1
Conditions: with rpc7_human POLR3G

Variant	effect of a mutation on the interaction
L312K	disrupting interaction

Variants of: B2
Conditions: with rpc7l_human POLR3GL

Variant	effect of a mutation on the interaction
L312K	disrupting interaction
